In PMC7037199 (International Journal of Molecular Sciences, 2020):
Where “and” joins values, the source holds several entries; their conditions need not be identical. Equal values may be shown once.

Key:
[1] = target: amyloid-β in whole brain lysates of Tg2576 mice (human); experiment: non-reducing Tris-Tricine SDS-PAGE with Western blot (SDS-stable bands); whole brain lysates of Tg2576 mice prepared with or without 100 μM TPEN; blots with anti-Aβ (6E10) or anti-apoE; no dithiothreitol or β-mercaptoethanol
[2] = target: the molecule itself; experiment: as above

## amyloid-β in whole brain lysates of Tg2576 mice (peptide)
[1]
  stoichiometry N: 4 and 3

B1: apolipoprotein E in whole brain lysates of Tg2576 mice (natural protein, mouse (endogenous in Tg2576 mouse brain), UniProt P08226 19-311, looked up)
chain: EGEPEVTDQLEWQSNQPWEQALNRFWDYLRWVQTLSDQVQEELQSSQVTQELTALMEDTMTEVKAYKKELEEQLGPVAEETRARLGKEVQAAQARLGADMEDLRNRLGQYRNEVHTMLGQSTEEIRARLSTHLRKMRKRLMRDAEDLQKRLAVYKAGAREGAERGVSAIRERLGPLVEQGRQRTANLGAGAAQPLRDRAQAFGDRIRGRLEEVGNQARDRLEEVREHMEEVRSKMEEQTQQIRLQAEIFQARLKGWFEPIVEDMHRQWANLMEKIQASVATNPIITPVAQENQ
notes: Apolipoprotein E endogenous in mouse brain; also called apoE; apoE monomers; source: endogenous, Tg2576 mouse brain lysate
[2]
  stoichiometry N: 2
